Test results as given in paper PMC6851300, “Calcium-activated chloride channel regulator 1 (CLCA1) forms non-covalent oligomers in colonic mucus and has mucin 2–processing properties” (The Journal of Biological Chemistry, 2019).
One block for each molecule: values may come before it.

Legend:
[1] = target: 250-kDa (nonreduced) fragment of MUC2-N after cleavage by rCLCA1, D′–D3 and CysD (human); test: non-reducing SDS-PAGE with SYPRO Ruby stain and immunoblot; recombinant MUC2-N with or without in vitro cleavage by rCLCA1 fractions (18 h, 37 C, 20 mM Tris-HCl pH 7.5, 150 mM NaCl, 10 mM CaCl2), separated without DTT; D3 (MUC2-N3) antibody
[2] = target: C-terminal cleavage product of recombinant human CLCA1 in supernatant of transfected CHO-K1 cells (human) (UniProt A8K7I4); test: non-reducing SDS-PAGE with immunoblot; supernatant from hCLCA1-transfected CHO-K1 cells, reducing or nonreducing sample buffer, blotted with C terminus (3-ar) antibody; shows disulfide-linked species only
[3] = target: C-terminal cleavage product of human CLCA1 in sigmoid colon mucus and epithelium (human (endogenous in sigmoid colon)) (UniProt A8K7I4); test: non-reducing SDS-PAGE with immunoblot; mucus and epithelial lysate from mouse distal colon or human sigmoid colon, denatured in SDS sample buffer without DTT (non-reduced) against with 100 mM DTT (reduced), blotted with C-terminal CLCA1 antibodies; shows disulfide-linked species only
[4] = target: C-terminal cleavage product of mouse Clca1 in distal colon mucus and epithelium (mouse (endogenous in colon)) (UniProt Q9D7Z6); test: as above
[5] = target: Mouse Clca1 in colonic mucus and epithelial lysate (N- and C-terminal products) (mouse (endogenous in colon)) (UniProt Q9D7Z6); test: native gel or EMSA; NativePAGE Novex Bis-Tris 4-16% with G-250; mucus and epithelial lysates from human sigmoid colon, WT and Clca1-/- mouse colon and desalted medium with rCLCA1; blotted with N- or C-terminal CLCA1 antibodies
[6] = target: Recombinant human CLCA1 in spent supernatant of rCLCA1-expressing CHO-K1 cells (N- and C-terminal products) (human) (UniProt A8K7I4); test: as above
[7] = target: Human CLCA1 in sigmoid colon mucus and epithelial lysate (N- and C-terminal products) (human (endogenous in sigmoid colon)) (UniProt A8K7I4); test: as above
[8] = target: the molecule itself; test: non-reducing SDS-PAGE with immunoblot; supernatant from hCLCA1-transfected CHO-K1 cells, reducing or nonreducing sample buffer, blotted with C terminus (3-ar) antibody; shows disulfide-linked species only

stoichiometry N [2]: 2
Molecule: C-terminal cleavage product of recombinant human CLCA1 in supernatant of transfected CHO-K1 cells (from UniProt A8K7I4 22-914) (domain or fragment)

stoichiometry N [4]: 2
Molecule: C-terminal cleavage product of mouse Clca1 in distal colon mucus and epithelium (from UniProt Q9D7Z6 22-913) (domain or fragment)

stoichiometry N [6]: 8
Molecule: Recombinant human CLCA1 in spent supernatant of rCLCA1-expressing CHO-K1 cells (N- and C-terminal products) (from UniProt A8K7I4 22-914; A8K7I4 22-914) (complex)

Second part, the molecule before the results:

Molecule: 250-kDa (nonreduced) fragment of MUC2-N after cleavage by rCLCA1, D′–D3 and CysD (domain or fragment)
stoichiometry N [1]: 3

Molecule: C-terminal cleavage product of human CLCA1 in sigmoid colon mucus and epithelium (from UniProt A8K7I4 22-914) (domain or fragment)
stoichiometry N [3]: 2

Molecule: Mouse Clca1 in colonic mucus and epithelial lysate (N- and C-terminal products) (from UniProt Q9D7Z6 22-913; Q9D7Z6 22-913) (complex)
stoichiometry N [5]: 8

Molecule: Human CLCA1 in sigmoid colon mucus and epithelial lysate (N- and C-terminal products) (from UniProt A8K7I4 22-914; A8K7I4 22-914) (complex)
stoichiometry N [7]: 8

B1: Uncleaved recombinant human CLCA1 secreted from transfected CHO-K1 cells (natural protein, UniProt A8K7I4 22-914, looked up)
chain: NSLIQLNNNGYEGIVVAIDPNVPEDETLIQQIKDMVTQASLYLLEATGKRFYFKNVAILIPETWKTKADYVRPKLETYKNADVLVAESTPPGNDEPYTEQMGNCGEKGERIHLTPDFIAGKKLAEYGPQGRAFVHEWAHLRWGVFDEYNNDEKFYLSNGRIQAVRCSAGITGTNVVKKCQGGSCYTKRCTFNKVTGLYEKGCEFVLQSRQTEKASIMFAQHVDSIVEFCTEQNHNKEAPNKQNQKCNLRSTWEVIRDSEDFKKTTPMTTQPPNPTFSLLQIGQRIVCLVLDKSGSMATGNRLNRLNQAGQLFLLQTVELGSWVGMVTFDSAAHVQNELIQINSGSDRDTLAKRLPAAASGGTSICSGLRSAFTVIRKKYPTDGSEIVLLTDGEDNTISGCFNEVKQSGAIIHTVALGPSAAQELEELSKMTGGLQTYASDQVQNNGLIDAFGALSSGNGAVSQRSIQLESKGLTLQNSQWMNGTVIVDSTVGKDTLFLITWTMQPPQILLWDPSGQKQGGFVVDKNTKMAYLQIPGIAKVGTWKYSLQASSQTLTLTVTSRASNATLPPITVTSKTNKDTSKFPSPLVVYANIRQGASPILRASVTALIESVNGKTVTLELLDNGAGADATKDDGVYSRYFTTYDTNGRYSVKVRALGGVNAARRRVIPQQSGALYIPGWIENDEIQWNPPRPEINKDDVQHKQVCFSRTSSGGSFVASDVPNAPIPDLFPPGQITDLKAEIHGGSLINLTWTAPGDDYDHGTAHKYIIRISTSILDLRDKFNESLQVNTTALIPKEANSEEVFLFKPENITFENGTDLFIAIQAVDKVDLKSEISNIARVSLFIPPQTPPETPSPDETSAPCPNIHINSTIPGIHILKIMWKWIGELQLSIA
modifications: glycosylated
notes: human CLCA1, full-length construct, not cut at the self-cleavage site (120 kDa); also called uncleaved rCLCA1; uncleaved CLCA1; source: CHO-K1, transfected, in supernatant
stoichiometry N [8]: 2
